Reference: the supplement of paper PMC7877785
± gives the uncertainty stated by the source.

Assay: self-splicing fitness, log relative to wild type (ln ratio); higher = more splicing; Tetrahymena group I intron in knt gene, E. coli kanamycin selection, DiMSum; sequences stand for … in CUCUCU…GGAGGGAAAAGUUAUCAGGCAUGCACCUGGUAGCUAGUCUUUAAACCAAUAGAUUGCAUCGGUUUAAAAGGCAAGACCGUCAAAUUGCGGGAAAGGGGUCAACAGCCGUUCAGUACCAAGUCUCAGGGGAAACUUUGAGAUGGCCUUGCAAAGGGUAUGGUAAUAAGCUGACGGACAUGGUCCUAACCACGCAGCCAAGUCCUAAGUCAACAGAUCUUCUGUUGAUAUGGAUGCAGUUCACAGACUAAAUGUCGGUCGGGGAAGAUGUAUUCUUCUCAUAAGAUAUAGUCGGACCUCUCCUUAAUGGGAGCUAGCGGAUGAAGUGAUGCAACACUGGAGCCGCUGGGAACUAAUUUGUAUGCGAAAGUAUAUUGAUUAGUUUUGGAGUACUCGUGGUCG
In short: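 Pooled colonies went to amplicon sequencing on an Illumina HiSeq 2500 after six replicate transformations. The plates were LB agar with 100 μg/mL carbenicillin, 50 μM IPTG and 0.2% rhamnose, with or without 25 μg/mL kanamycin, incubated overnight at 37°C or 30°C. The E. coli BL21(DE3) library had all eight P1ex-region intron nucleotides randomised, the intron placed in the knt kanamycin-resistance gene on pET-22b(+). DiMSum fitness is the error-weighted combination of replicate fold changes, kanamycin against none, normalised to wild type.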

Sequence | self-splicing fitness (ln) (30 °C) | self-splicing fitness (ln) (37 °C)
ACGGAGCAAUAUUACGGGCU | -2.7 ± 0.25 | -2.43 ± 0.27
ACGGAGCAAUAUUACGUAUC | -2.75 ± 0.2 | -2.52 ± 0.29
ACGGAGCAAUAUUACGUCGU | -2.98 ± 0.26 | -2.48 ± 0.19
ACGGAGCAAUAUUACGUGGU | -3.91 ± 0.4 | -1.08 ± 0.2
ACGGAGCAAUAUUACGUGUA | -3.72 ± 0.29 | -3.03 ± 0.23
ACGGAGCAAUAUUACGUUCG | -1.33 ± 0.097 | -0.333 ± 0.13
ACGGAGCAAUAUUACGUUCU | -3.16 ± 0.31 | -2.52 ± 0.22
ACGGAGCAAUAUUACGUUUG | -2.3 ± 0.12 | -2.31 ± 0.19
ACGUAGCAAUAUUACGAAGG | -2.19 ± 0.21 | -3.97 ± 0.46
ACGUAGCAAUAUUACGAAGU | -2.97 ± 0.2 | -2.86 ± 0.21
ACGUAGCAAUAUUACGACAC | -1.46 ± 0.21 | -0.658 ± 0.18
ACGUAGCAAUAUUACGACGU | -2.97 ± 0.15 | -2.31 ± 0.19
ACGUAGCAAUAUUACGAGAC | -2.37 ± 0.3 | 
ACGUAGCAAUAUUACGCACA | -0.463 ± 0.12 | -0.501 ± 0.13
ACGUAGCAAUAUUACGCAUA | -1.82 ± 0.13 | -1.2 ± 0.12
ACGUAGCAAUAUUACGCCAG | -1.59 ± 0.18 | -2.19 ± 0.45
ACGUAGCAAUAUUACGCCUC | -2.48 ± 0.38 | -2.16 ± 0.41
ACGUAGCAAUAUUACGCGCA | -0.687 ± 0.076 | -0.337 ± 0.097
ACGUAGCAAUAUUACGGAAG | -3.32 ± 0.3 | -1.91 ± 0.28
ACGUAGCAAUAUUACGGAAU | -2.29 ± 0.15 | -2.07 ± 0.17
ACGUAGCAAUAUUACGGACG | -1.88 ± 0.17 | -0.579 ± 0.13
ACGUAGCAAUAUUACGGAUC | -1.97 ± 0.096 | -0.313 ± 0.097
ACGUAGCAAUAUUACGGAUG | -4.2 ± 0.24 | -2.42 ± 0.21
ACGUAGCAAUAUUACGGUGU | -2.43 ± 0.11 | -1.81 ± 0.14

Sequence | self-splicing fitness (ln) (30 °C) | self-splicing fitness (ln) (37 °C)
ACGUAGCAAUAUUACGUACU | -1.11 ± 0.11 | -2 ± 0.14
ACGUAGCAAUAUUACGUAUU | -3.93 ± 0.17 | -2.48 ± 0.15
ACGUAGCAAUAUUACGUGGA | -3.46 ± 0.32 | -2.2 ± 0.23
ACGUAGCAAUAUUACGUUAG | -3.99 ± 0.16 | -2.13 ± 0.15
ACGUAGCAAUAUUACGUUCU | -2.3 ± 0.097 | -0.807 ± 0.076
ACUAAGCAAUAUUACGAAAG | -1.76 ± 0.14 | -1.55 ± 0.16
ACUAAGCAAUAUUACGAACC | -0.514 ± 0.16 | -1.24 ± 0.24
ACUAAGCAAUAUUACGACUC | -0.352 ± 0.12 | 0.402 ± 0.14
ACUAAGCAAUAUUACGAUCC | -1.02 ± 0.14 | -0.609 ± 0.16
ACUAAGCAAUAUUACGAUGU | -1.62 ± 0.1 | -1.38 ± 0.13
ACUAAGCAAUAUUACGAUUG | -2.62 ± 0.13 | -1.5 ± 0.14
ACUAAGCAAUAUUACGCAGC | -2.94 ± 0.36 | -0.621 ± 0.18
ACUAAGCAAUAUUACGCCGC | -3.02 ± 0.35 | -1.86 ± 0.41
ACUAAGCAAUAUUACGCCUU | -1.09 ± 0.082 | -0.381 ± 0.11
ACUAAGCAAUAUUACGCGUA | -1.2 ± 0.11 | -0.501 ± 0.13
ACUAAGCAAUAUUACGGAUG | -2.49 ± 0.12 | -1.42 ± 0.13
ACUAAGCAAUAUUACGGCUC | -0.0701 ± 0.093 | 0.329 ± 0.11
ACUAAGCAAUAUUACGGUGG | -3.1 ± 0.11 | -2.84 ± 0.16
ACUAAGCAAUAUUACGUAAA | -2.48 ± 0.13 | -1.6 ± 0.14
ACUAAGCAAUAUUACGUACC | -1.05 ± 0.16 | -0.715 ± 0.2
ACUAAGCAAUAUUACGUAGA | -3.25 ± 0.12 | -1.28 ± 0.1
ACUAAGCAAUAUUACGUCUC | -2.79 ± 0.16 | -0.208 ± 0.14
ACUAAGCAAUAUUACGUUAC | -3.81 ± 0.2 | -3.08 ± 0.3
ACUAAGCAAUAUUACGUUCU | -0.391 ± 0.071 | -0.412 ± 0.094

Sequence | self-splicing fitness (ln) (30 °C) | self-splicing fitness (ln) (37 °C)
ACUAAGCAAUAUUACGUUGC | -3.69 ± 0.27 | -2.77 ± 0.22
ACUCAGCAAUAUUACGAUUC | -1.63 ± 0.087 | -0.302 ± 0.1
ACUCAGCAAUAUUACGCAAU | -1.37 ± 0.078 | -0.643 ± 0.093
ACUCAGCAAUAUUACGCACC | -1.19 ± 0.094 | 0.495 ± 0.11
ACUCAGCAAUAUUACGCAGG | -1.99 ± 0.11 | -1.35 ± 0.13
ACUCAGCAAUAUUACGCCCG | -1.62 ± 0.14 | -0.599 ± 0.18
ACUCAGCAAUAUUACGCCGG | -0.85 ± 0.074 | -0.683 ± 0.092
ACUCAGCAAUAUUACGCUAA | -1.63 ± 0.1 | -0.781 ± 0.1
ACUCAGCAAUAUUACGGAAU | -1.75 ± 0.084 | -0.549 ± 0.11
ACUCAGCAAUAUUACGGACG | -0.251 ± 0.069 | -0.156 ± 0.09
ACUCAGCAAUAUUACGGAGC | -3.55 ± 0.21 | -1.76 ± 0.17
ACUCAGCAAUAUUACGGCUG | -2.36 ± 0.21 | -2.86 ± 0.29
ACUCAGCAAUAUUACGGGAA | -0.98 ± 0.088 | -0.568 ± 0.095
ACUCAGCAAUAUUACGGGCA | -0.259 ± 0.063 | 0.203 ± 0.084
ACUCAGCAAUAUUACGGGGA | -1.24 ± 0.074 | -0.173 ± 0.082
ACUCAGCAAUAUUACGGGGG | -1.68 ± 0.11 | -1.45 ± 0.14
ACUCAGCAAUAUUACGGGGU | -3.84 ± 0.19 | -2.84 ± 0.2
ACUCAGCAAUAUUACGGGUC | -2.95 ± 0.16 | -2.2 ± 0.17
ACUCAGCAAUAUUACGGGUG | -1.42 ± 0.063 | -0.563 ± 0.077
ACUCAGCAAUAUUACGGUCU | -0.745 ± 0.057 | 0.311 ± 0.079
ACUCAGCAAUAUUACGGUGC | -1.69 ± 0.07 | -0.59 ± 0.082
ACUCAGCAAUAUUACGUACU | -0.824 ± 0.056 | -0.927 ± 0.063
ACUCAGCAAUAUUACGUAGG | -0.866 ± 0.06 | -0.368 ± 0.092
ACUCAGCAAUAUUACGUCCA | -0.69 ± 0.084 | -1.36 ± 0.11

Sequence | self-splicing fitness (ln) (30 °C) | self-splicing fitness (ln) (37 °C)
ACUCAGCAAUAUUACGUGCU | -2.27 ± 0.082 | -2.53 ± 0.11
ACUCAGCAAUAUUACGUGUG | -1.39 ± 0.061 | -1.3 ± 0.072
ACUCAGCAAUAUUACGUUCU | -0.967 ± 0.079 | -0.242 ± 0.074
ACUGAGCAAUAUUACGAACU | -1.92 ± 0.13 | -1.24 ± 0.16
ACUGAGCAAUAUUACGAUAC | -1.07 ± 0.29 | -1.96 ± 0.33
ACUGAGCAAUAUUACGCCUA | -2.23 ± 0.17 | -1.42 ± 0.18
ACUGAGCAAUAUUACGCUUA | -3.12 ± 0.38 | -1.88 ± 0.2
ACUGAGCAAUAUUACGGCAC | -3.97 ± 0.37 | -2.6 ± 0.29
ACUGAGCAAUAUUACGGCCU | -2.58 ± 0.23 | -2.12 ± 0.25
ACUGAGCAAUAUUACGGGAC |  | -1.43 ± 0.28
ACUGAGCAAUAUUACGGGCC | -2.33 ± 0.38 | -2.51 ± 0.23
ACUGAGCAAUAUUACGGUAC | -3.19 ± 0.48 | 
ACUGAGCAAUAUUACGGUGG | -3.61 ± 0.16 | -2.37 ± 0.18
ACUGAGCAAUAUUACGGUUC | -3.46 ± 0.19 | -2.08 ± 0.21
ACUGAGCAAUAUUACGGUUU | -3.46 ± 0.17 | -2.6 ± 0.11
ACUGAGCAAUAUUACGUAAA |  | -2.33 ± 0.24
ACUGAGCAAUAUUACGUAAU | -3.47 ± 0.23 | -2.23 ± 0.22
ACUGAGCAAUAUUACGUCAC | -3.38 ± 0.17 | -2.75 ± 0.21
ACUGAGCAAUAUUACGUCAG | -2.94 ± 0.2 | -2.21 ± 0.19
ACUGAGCAAUAUUACGUGUC | -2.31 ± 0.25 | -2.62 ± 0.28
ACUGAGCAAUAUUACGUGUG | -2.22 ± 0.11 | -2.13 ± 0.16
ACUGAGCAAUAUUACGUGUU | -4.1 ± 0.15 | -2.25 ± 0.11
ACUGAGCAAUAUUACGUUAU | -3.12 ± 0.15 | -2.89 ± 0.2
ACUUAGCAAUAUUACGAAAU | -3.03 ± 0.23 | -1.23 ± 0.2
